Sequences and labels used below:
B1: LINE1-mini (parent)
chain: GGCAGAGCUCAACACAGCGUGGCAAAGUGGCUGUGGCUAGACUGCC

The variants in this series derive from B1. The series is described as follows: self-cleavage, relative activity (ratio to wild type); higher = more cleavage; in vitro, sequencing; the parent is a self-cleaving ribozyme.
Regarding GGCAGAGCUCAACAGAGCGUGGCAAAGUGGCUGUGACUAGACUGCC [C15G G36A], the self-cleavage was determined as 0.06. Then GGCAGAGCUCAACAGAGCGUGGCAAAGUGGCUGUGUCUAGACUGCC [C15G G36U], with 0.04. Then GGCAGAGCUCAACAGAGCGUGGCAAAGUGGCUGUAGCUAGACUGCC [C15G G35A], with 0.04.

In the case of GGCAGAGCUCAACAGAGCGUGGCAAAGUGGCUGUCGCUAGACUGCC [C15G G35C], the self-cleavage came out at 0.13.

Consider GGCAGAGCUCAACAGAGCGUGGCAAAGUGGCUGUUGCUAGACUGCC [C15G G35U], for which the self-cleavage stood at 0.03. Then GGCAGAGCUCAACAUAGCGUGGCAAACUGGCUGUGGCUAGACUGCC [C15U G27C], with 0.87; and GGCAGAGCUCAACAUAGCGUGGCAAAUUGGCUGUGGCUAGACUGCC [C15U G27U], with 1.36. As to GGCAGAGCUCAACAUAGCGUGGCAAAAUGGCUGUGGCUAGACUGCC [C15U G27A], the self-cleavage was 1.41. With GGCAGAGCUCAACAUGGCGUGGCAAAGUGGCUGUGGCUAGACUGCC [C15U A16G], the self-cleavage was 0.42. Then GGCAGAGCUCAACAUCGCGUGGCAAAGUGGCUGUGGCUAGACUGCC [C15U A16C], with 0.13; and GGCAGAGCUCAACAUUGCGUGGCAAAGUGGCUGUGGCUAGACUGCC [C15U A16U], with 0.1; and GGCAGAGCUCAACAGAGCGUGGCAAAGUGGCUGUGGCUAGACGGCC [C15G U43G], with 0.

GGCAGAGCUCAACAGAGCGUGGCAAAGUGGCUGUGGCUAGACAGCC [C15G U43A]: the self-cleavage turned out to be 0.02. As to GGCAGAGCUCAACAGAGCGUGGCAAAGUGGCUGUGGCUAGACCGCC [C15G U43C], the self-cleavage is 0.03. Consider GGCAGAGCUCAACAUAGCGUGGCAAAGUGGCUGUGGCUAGACUGCA [C15U C46A], for which the self-cleavage was 0.92.

For GGCAGAGCUCAACAUAGCGUGGCAAAGUGGCUGUGGCUAGACUGCG [C15U C46G], the self-cleavage was 0.33. Then GGCAGAGCUCAACAUAGCGUGGCAAAGUGGCUGUGGCUAGACUGCU [C15U C46U], with 0.43; and GGCAGAGCUCAACAGAGCGUGGCAAAGUGGCUGUGGCUAAACUGCC [C15G G40A], with 0.08; and GGCAGAGCUCAACAGAGCGUGGCAAAGUGGCUGUGGCUAUACUGCC [C15G G40U], with 0.09. Then GGCAGAGCUCAACAGAGCGUGGCAAAGUGGCUGUGGCUACACUGCC [C15G G40C], with 0.03; and GGCAGAGCUCAACAUAGCGUGCCAAAGUGGCUGUGGCUAGACUGCC [C15U G22C], with 0.53; and GGCAGAGCUCAACAUAGCGUGUCAAAGUGGCUGUGGCUAGACUGCC [C15U G22U], with 0.78. For GGCAGAGCUCAACAUAGCGUGACAAAGUGGCUGUGGCUAGACUGCC [C15U G22A], the self-cleavage came out at 1.21. Then GGCAGAGCUCAACAGAGCGUGGCAAAGUAGCUGUGGCUAGACUGCC [C15G G29A], with 0.09; and GGCAGAGCUCAACAGAGCGUGGCAAAGUCGCUGUGGCUAGACUGCC [C15G G29C], with 0.1; and GGCAGAGCUCAACAGAGCGUGGCAAAGUUGCUGUGGCUAGACUGCC [C15G G29U], with 0.06.

On to GGCAGAGCUCAACAGAGCGUGGCAAAGUGGCUGUGGCUAGACUGCG [C15G C46G], for which the self-cleavage came to 0.03. Take GGCAGAGCUCAACAGAGCGUGGCAAAGUGGCUGUGGCUAGACUGCU [C15G C46U]: the self-cleavage came to 0.06. In the case of GGCAGAGCUCAACAGAGCCUGGCAAAGUGGCUGUGGCUAGACUGCC [C15G G19C], the self-cleavage turned out to be 0.13.

In the case of GGCAGAGCUCAACAGAGCAUGGCAAAGUGGCUGUGGCUAGACUGCC [C15G G19A], the self-cleavage was determined as 0.07. As to GGCAGAGCUCAACAGAGCUUGGCAAAGUGGCUGUGGCUAGACUGCC [C15G G19U], the self-cleavage worked out at 0.03. The figure for GGCAGAGCUCAACAUAGCGUGGCAAAGUGGUUGUGGCUAGACUGCC [C15U C31U] is 0.09; for GGCAGAGCUCAACAUAGCGUGGCAAAGUGGAUGUGGCUAGACUGCC [C15U C31A] it is 0.06. The figure for GGCAGAGCUCAACAUAGCGUGGCAAAGUGGGUGUGGCUAGACUGCC [C15U C31G] is 0.06; for GGCAGAGCUCAACAUAGCCUGGCAAAGUGGCUGUGGCUAGACUGCC [C15U G19C] it is 1.39.

As to GGCAGAGCUCAACAUAGCUUGGCAAAGUGGCUGUGGCUAGACUGCC [C15U G19U], the self-cleavage is 0.87. The figure for GGCAGAGCUCAACAUAGCAUGGCAAAGUGGCUGUGGCUAGACUGCC [C15U G19A] is 0.98; for GGCAGAGCUCAACAUAGCGUGGCAAAGUGGCUGUGGCUAGAUUGCC [C15U C42U] it is 0.11.

GGCAGAGCUCAACAUAGCGUGGCAAAGUGGCUGUGGCUAGAAUGCC [C15U C42A]: the self-cleavage stood at 0.08. The figure for GGCAGAGCUCAACAUAGCGUGGCAAAGUGGCUGUGGCUAGAGUGCC [C15U C42G] is 0.09; for GGCAGAGCUCAACAUAGCGUGGUAAAGUGGCUGUGGCUAGACUGCC [C15U C23U] it is 1.91.

For the variant GGCAGAGCUCAACAUAGCGUGGGAAAGUGGCUGUGGCUAGACUGCC [C15U C23G], the self-cleavage was found to be 0.81. The figure for GGCAGAGCUCAACAUAGCGUGGAAAAGUGGCUGUGGCUAGACUGCC [C15U C23A] is 2.82; for GGCAGAGCUCAACAGAACGUGGCAAAGUGGCUGUGGCUAGACUGCC [C15G G17A] it is 0.05; for GGCAGAGCUCAACAGACCGUGGCAAAGUGGCUGUGGCUAGACUGCC [C15G G17C] it is 0.04. The figure for GGCAGAGCUCAACAGAUCGUGGCAAAGUGGCUGUGGCUAGACUGCC [C15G G17U] is 0.05; for GGCAGAGCUCAACAGAGCGUGGCAAAGUGGCUUUGGCUAGACUGCC [C15G G33U] it is 0.36. For the variant GGCAGAGCUCAACAGAGCGUGGCAAAGUGGCUCUGGCUAGACUGCC [C15G G33C], the self-cleavage was determined as 0.25.

As for GGCAGAGCUCAACAGAGCGUGGCAAAGUGGCUAUGGCUAGACUGCC [C15G G33A], the self-cleavage worked out at 0.03.

On to GGCAGAGCUCAACAGAGCGUGGCAAAGCGGCUGUGGCUAGACUGCC [C15G U28C], for which the self-cleavage was 0.04. In the case of GGCAGAGCUCAACAGAGCGUGGCAAAGGGGCUGUGGCUAGACUGCC [C15G U28G], the self-cleavage was 0.04. Then GGCAGAGCUCAACAGAGCGUGGCAAAGAGGCUGUGGCUAGACUGCC [C15G U28A], with 0.04; and GGCAGAGCUCAACAUAGCGUGGCAAAGUAGCUGUGGCUAGACUGCC [C15U G29A], with 1.1. Then GGCAGAGCUCAACAGAGCGUGCCAAAGUGGCUGUGGCUAGACUGCC [C15G G22C], with 0.03. With GGCAGAGCUCAACAGAGCGUGUCAAAGUGGCUGUGGCUAGACUGCC [C15G G22U], the self-cleavage came to 0.3. Then GGCAGAGCUCAACAGAGCGUGACAAAGUGGCUGUGGCUAGACUGCC [C15G G22A], with 0.15.

The record behind these values is the RNAGym collection of RNA variant scans (doi:10.7554/elife.90254).
